Source: patent US20240209076A1 (KODIAK SCIENCES, published 2024)

B1: anti-IL-6 Fab, heavy chain Q99H (Fab, V domains shown)
VH: EVQLVESGGGLVQPGGSLRLSCAASGFTFSPFAMSWVRQAPGKGLEWVAKISPGGSWTYYSDTVTGRFTFSLDTSKSTAYLQMNSLRAEDTAVYYCARHLWGYYALDIWGQGTLVTVSS
VL: DIQLTQSPSSLSASVGDRVTITCSASISVSYMYWYQQKPGKAPKLLIYDMSNLASGVPSRFSGSGSGTDFTLTISSLQPEDFATYYCMQWSGYPYTFGQGTKVEIK
B2: anti-IL-6 Fab, heavy chain L100K (Fab, V domains shown)
VH: EVQLVESGGGLVQPGGSLRLSCAASGFTFSPFAMSWVRQAPGKGLEWVAKISPGGSWTYYSDTVTGRFTFSLDTSKSTAYLQMNSLRAEDTAVYYCARQKWGYYALDIWGQGTLVTVSS
VL: DIQLTQSPSSLSASVGDRVTITCSASISVSYMYWYQQKPGKAPKLLIYDMSNLASGVPSRFSGSGSGTDFTLTISSLQPEDFATYYCMQWSGYPYTFGQGTKVEIK
B3: anti-IL-6 Fab, heavy chain Y103E (Fab, V domains shown)
VH: EVQLVESGGGLVQPGGSLRLSCAASGFTFSPFAMSWVRQAPGKGLEWVAKISPGGSWTYYSDTVTGRFTFSLDTSKSTAYLQMNSLRAEDTAVYYCARQLWGEYALDIWGQGTLVTVSS
VL: DIQLTQSPSSLSASVGDRVTITCSASISVSYMYWYQQKPGKAPKLLIYDMSNLASGVPSRFSGSGSGTDFTLTISSLQPEDFATYYCMQWSGYPYTFGQGTKVEIK
B4: anti-IL-6 Fab, heavy chain G102D (Fab, V domains shown)
VH: EVQLVESGGGLVQPGGSLRLSCAASGFTFSPFAMSWVRQAPGKGLEWVAKISPGGSWTYYSDTVTGRFTFSLDTSKSTAYLQMNSLRAEDTAVYYCARQLWDYYALDIWGQGTLVTVSS
VL: DIQLTQSPSSLSASVGDRVTITCSASISVSYMYWYQQKPGKAPKLLIYDMSNLASGVPSRFSGSGSGTDFTLTISSLQPEDFATYYCMQWSGYPYTFGQGTKVEIK
B5: anti-IL-6 Fab, heavy chain D107E (Fab, V domains shown)
VH: EVQLVESGGGLVQPGGSLRLSCAASGFTFSPFAMSWVRQAPGKGLEWVAKISPGGSWTYYSDTVTGRFTFSLDTSKSTAYLQMNSLRAEDTAVYYCARQLWGYYALEIWGQGTLVTVSS
VL: DIQLTQSPSSLSASVGDRVTITCSASISVSYMYWYQQKPGKAPKLLIYDMSNLASGVPSRFSGSGSGTDFTLTISSLQPEDFATYYCMQWSGYPYTFGQGTKVEIK
B6: anti-IL-6 Fab, heavy chain A105Q (Fab, V domains shown)
VH: EVQLVESGGGLVQPGGSLRLSCAASGFTFSPFAMSWVRQAPGKGLEWVAKISPGGSWTYYSDTVTGRFTFSLDTSKSTAYLQMNSLRAEDTAVYYCARQLWGYYQLDIWGQGTLVTVSS
VL: DIQLTQSPSSLSASVGDRVTITCSASISVSYMYWYQQKPGKAPKLLIYDMSNLASGVPSRFSGSGSGTDFTLTISSLQPEDFATYYCMQWSGYPYTFGQGTKVEIK
B7: anti-IL-6 Fab, heavy chain I108E (Fab, V domains shown)
VH: EVQLVESGGGLVQPGGSLRLSCAASGFTFSPFAMSWVRQAPGKGLEWVAKISPGGSWTYYSDTVTGRFTFSLDTSKSTAYLQMNSLRAEDTAVYYCARQLWGYYALDEWGQGTLVTVSS
VL: DIQLTQSPSSLSASVGDRVTITCSASISVSYMYWYQQKPGKAPKLLIYDMSNLASGVPSRFSGSGSGTDFTLTISSLQPEDFATYYCMQWSGYPYTFGQGTKVEIK
B8: anti-IL-6 antibody, light chain L53R (heavy chain WT) (antibody, V domains shown)
VH: EVQLVESGGGLVQPGGSLRLSCAASGFTFSPFAMSWVRQAPGKGLEWVAKISPGGSWTYYSDTVTGRFTFSLDTSKSTAYLQMNSLRAEDTAVYYCARQLWGYYALDIWGQGTLVTVSS
VL: DIQLTQSPSSLSASVGDRVTITCSASISVSYMYWYQQKPGKAPKLLIYDMSNRASGVPSRFSGSGSGTDFTLTISSLQPEDFATYYCMQWSGYPYTFGQGTKVEIK
notes: See note of m2; also called WT / L53R
B9: anti-IL-6 antibody, light chain L53W (heavy chain WT) (antibody, V domains shown)
VH: EVQLVESGGGLVQPGGSLRLSCAASGFTFSPFAMSWVRQAPGKGLEWVAKISPGGSWTYYSDTVTGRFTFSLDTSKSTAYLQMNSLRAEDTAVYYCARQLWGYYALDIWGQGTLVTVSS
VL: DIQLTQSPSSLSASVGDRVTITCSASISVSYMYWYQQKPGKAPKLLIYDMSNWASGVPSRFSGSGSGTDFTLTISSLQPEDFATYYCMQWSGYPYTFGQGTKVEIK
notes: See note of m2; also called WT / L53W
B10: anti-IL-6 antibody, light chain S30G (heavy chain WT) (antibody, V domains shown)
VH: EVQLVESGGGLVQPGGSLRLSCAASGFTFSPFAMSWVRQAPGKGLEWVAKISPGGSWTYYSDTVTGRFTFSLDTSKSTAYLQMNSLRAEDTAVYYCARQLWGYYALDIWGQGTLVTVSS
VL: DIQLTQSPSSLSASVGDRVTITCSASISVGYMYWYQQKPGKAPKLLIYDMSNLASGVPSRFSGSGSGTDFTLTISSLQPEDFATYYCMQWSGYPYTFGQGTKVEIK
notes: See note of m2; also called WT / S30G
B11: anti-IL-6 antibody, light chain Q89S (heavy chain WT) (antibody, V domains shown)
VH: EVQLVESGGGLVQPGGSLRLSCAASGFTFSPFAMSWVRQAPGKGLEWVAKISPGGSWTYYSDTVTGRFTFSLDTSKSTAYLQMNSLRAEDTAVYYCARQLWGYYALDIWGQGTLVTVSS
VL: DIQLTQSPSSLSASVGDRVTITCSASISVSYMYWYQQKPGKAPKLLIYDMSNLASGVPSRFSGSGSGTDFTLTISSLQPEDFATYYCMSWSGYPYTFGQGTKVEIK
notes: See note of m2; also called WT / Q89S
B12: anti-IL-6 antibody, light chain L53H (heavy chain WT) (antibody, V domains shown)
VH: EVQLVESGGGLVQPGGSLRLSCAASGFTFSPFAMSWVRQAPGKGLEWVAKISPGGSWTYYSDTVTGRFTFSLDTSKSTAYLQMNSLRAEDTAVYYCARQLWGYYALDIWGQGTLVTVSS
VL: DIQLTQSPSSLSASVGDRVTITCSASISVSYMYWYQQKPGKAPKLLIYDMSNHASGVPSRFSGSGSGTDFTLTISSLQPEDFATYYCMQWSGYPYTFGQGTKVEIK
notes: See note of m2; also called WT / L53H
B13: anti-IL-6 antibody, light chain Q89A (heavy chain WT) (antibody, V domains shown)
VH: EVQLVESGGGLVQPGGSLRLSCAASGFTFSPFAMSWVRQAPGKGLEWVAKISPGGSWTYYSDTVTGRFTFSLDTSKSTAYLQMNSLRAEDTAVYYCARQLWGYYALDIWGQGTLVTVSS
VL: DIQLTQSPSSLSASVGDRVTITCSASISVSYMYWYQQKPGKAPKLLIYDMSNLASGVPSRFSGSGSGTDFTLTISSLQPEDFATYYCMAWSGYPYTFGQGTKVEIK
notes: See note of m2; also called WT / Q89A
B14: anti-IL-6 antibody, light chain A54Y (heavy chain WT) (antibody, V domains shown)
VH: EVQLVESGGGLVQPGGSLRLSCAASGFTFSPFAMSWVRQAPGKGLEWVAKISPGGSWTYYSDTVTGRFTFSLDTSKSTAYLQMNSLRAEDTAVYYCARQLWGYYALDIWGQGTLVTVSS
VL: DIQLTQSPSSLSASVGDRVTITCSASISVSYMYWYQQKPGKAPKLLIYDMSNLYSGVPSRFSGSGSGTDFTLTISSLQPEDFATYYCMQWSGYPYTFGQGTKVEIK
notes: See note of m2; also called WT / A54Y
B15: anti-IL-6 antibody, light chain N52S (heavy chain WT) (antibody, V domains shown)
VH: EVQLVESGGGLVQPGGSLRLSCAASGFTFSPFAMSWVRQAPGKGLEWVAKISPGGSWTYYSDTVTGRFTFSLDTSKSTAYLQMNSLRAEDTAVYYCARQLWGYYALDIWGQGTLVTVSS
VL: DIQLTQSPSSLSASVGDRVTITCSASISVSYMYWYQQKPGKAPKLLIYDMSSLASGVPSRFSGSGSGTDFTLTISSLQPEDFATYYCMQWSGYPYTFGQGTKVEIK
notes: See note of m2; also called WT / N52S
B16: anti-IL-6 antibody, light chain I47V (heavy chain WT) (antibody, V domains shown)
VH: EVQLVESGGGLVQPGGSLRLSCAASGFTFSPFAMSWVRQAPGKGLEWVAKISPGGSWTYYSDTVTGRFTFSLDTSKSTAYLQMNSLRAEDTAVYYCARQLWGYYALDIWGQGTLVTVSS
VL: DIQLTQSPSSLSASVGDRVTITCSASISVSYMYWYQQKPGKAPKLLVYDMSNLASGVPSRFSGSGSGTDFTLTISSLQPEDFATYYCMQWSGYPYTFGQGTKVEIK
notes: See note of m2; also called WT / 147V
B17: anti-IL-6 antibody, light chain A54G (heavy chain WT) (antibody, V domains shown)
VH: EVQLVESGGGLVQPGGSLRLSCAASGFTFSPFAMSWVRQAPGKGLEWVAKISPGGSWTYYSDTVTGRFTFSLDTSKSTAYLQMNSLRAEDTAVYYCARQLWGYYALDIWGQGTLVTVSS
VL: DIQLTQSPSSLSASVGDRVTITCSASISVSYMYWYQQKPGKAPKLLIYDMSNLGSGVPSRFSGSGSGTDFTLTISSLQPEDFATYYCMQWSGYPYTFGQGTKVEIK
notes: See note of m2; also called WT / A54G
B18: anti-IL-6 antibody, light chain L46V (heavy chain WT) (antibody, V domains shown)
VH: EVQLVESGGGLVQPGGSLRLSCAASGFTFSPFAMSWVRQAPGKGLEWVAKISPGGSWTYYSDTVTGRFTFSLDTSKSTAYLQMNSLRAEDTAVYYCARQLWGYYALDIWGQGTLVTVSS
VL: DIQLTQSPSSLSASVGDRVTITCSASISVSYMYWYQQKPGKAPKLVIYDMSNLASGVPSRFSGSGSGTDFTLTISSLQPEDFATYYCMQWSGYPYTFGQGTKVEIK
notes: See note of m2; also called WT / L46V
B19: anti-IL-6 antibody, light chain A54L (heavy chain WT) (antibody, V domains shown)
VH: EVQLVESGGGLVQPGGSLRLSCAASGFTFSPFAMSWVRQAPGKGLEWVAKISPGGSWTYYSDTVTGRFTFSLDTSKSTAYLQMNSLRAEDTAVYYCARQLWGYYALDIWGQGTLVTVSS
VL: DIQLTQSPSSLSASVGDRVTITCSASISVSYMYWYQQKPGKAPKLLIYDMSNLLSGVPSRFSGSGSGTDFTLTISSLQPEDFATYYCMQWSGYPYTFGQGTKVEIK
notes: See note of m2; also called WT / A54L
B20: anti-IL-6 antibody, light chain S30A (heavy chain WT) (antibody, V domains shown)
VH: EVQLVESGGGLVQPGGSLRLSCAASGFTFSPFAMSWVRQAPGKGLEWVAKISPGGSWTYYSDTVTGRFTFSLDTSKSTAYLQMNSLRAEDTAVYYCARQLWGYYALDIWGQGTLVTVSS
VL: DIQLTQSPSSLSASVGDRVTITCSASISVAYMYWYQQKPGKAPKLLIYDMSNLASGVPSRFSGSGSGTDFTLTISSLQPEDFATYYCMQWSGYPYTFGQGTKVEIK
notes: See note of m2; also called WT / S30A

What follows are binders tested against recombinant human IL-6 (human, UniProt P05231 30-212) (assay: SPR, IL-6 on CM5 chip, Fab lysate, 25 C).
Target sequence in this assay (P05231 30-212 limits assumed): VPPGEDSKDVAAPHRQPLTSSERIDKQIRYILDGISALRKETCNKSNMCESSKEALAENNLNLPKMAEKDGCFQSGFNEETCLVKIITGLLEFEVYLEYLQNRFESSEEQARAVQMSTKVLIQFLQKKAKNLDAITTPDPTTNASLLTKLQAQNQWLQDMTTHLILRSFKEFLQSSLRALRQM
A koff of 0.00441 s⁻¹ was found for B1 in this work.
A koff of 0.00287 s⁻¹ was found for B2 in this work.
A koff of 0.00512 s⁻¹ was found for B3 in this work.
A koff of 0.00389 s⁻¹ was found for B4 in this work.
A koff of 0.00438 s⁻¹ was found for B5 in this work.
A koff of 0.00401 s⁻¹ was found for B6 in this work.
A koff of 0.00308 s⁻¹ was found for B7 in this work.

These binders were tested against T1, recombinant human IL-6 (human, UniProt P05231 30-212) (assay: SPR Biacore, supernatant Ab on Protein A chip, IL-6 analyte, 25 C).
T1 construct: Bought protein
Method: Antibodies were captured on a Protein A chip (GE) by injecting 1:20 dilution of cell supernatant at 10 μL/min for 60 seconds. […] The sensor chip was regenerated by a 60 seconds injection of 10 mM Glycine pH 1.7 at flow rate of 50 μL/min. […] For this setup, 1 μg/mL of purified antibody was injected over a Protein A chip at 10 μL/min for 25-28 seconds. Data analysis for supernatant and purified samples were performed using BIAevaluation software (GE). All sensorgrams were double reference subtracted and fit using a 1:1 Langmuir binding model.
T1 sequence (P05231 30-212 limits assumed): as above
A Kd of 0.446 nM, a koff of 0.000185 s⁻¹ and a kon of 416000 M⁻¹ s⁻¹ were found for B8 in this work.
A Kd of 0.00518 nM, a koff of 6.14e-06 s⁻¹ and a kon of 1.19e+06 M⁻¹ s⁻¹ were found for B9 in this work.
A Kd of 0.316 nM, a koff of 0.000173 s⁻¹ and a kon of 548000 M⁻¹ s⁻¹ were found for B10 in this work.
A Kd of 0.752 nM, a koff of 0.000272 s⁻¹ and a kon of 362000 M⁻¹ s⁻¹ were found for B11 in this work.
A Kd of 0.401 nM, a koff of 0.000218 s⁻¹ and a kon of 544000 M⁻¹ s⁻¹ were found for B12 in this work.
A Kd of 0.419 nM, a koff of 0.000227 s⁻¹ and a kon of 543000 M⁻¹ s⁻¹ were found for B13 in this work.
A Kd of 0.168 nM, a koff of 0.000109 s⁻¹ and a kon of 652000 M⁻¹ s⁻¹ were found for B14 in this work.
A Kd of 0.353 nM, a koff of 0.000152 s⁻¹ and a kon of 430000 M⁻¹ s⁻¹ were found for B15 in this work.
A Kd of 0.414 nM, a koff of 0.000195 s⁻¹ and a kon of 471000 M⁻¹ s⁻¹ were found for B16 in this work.
A Kd of 0.416 nM, a koff of 0.000198 s⁻¹ and a kon of 475000 M⁻¹ s⁻¹ were found for B17 in this work.
A Kd of 0.442 nM, a koff of 0.000203 s⁻¹ and a kon of 460000 M⁻¹ s⁻¹ were found for B18 in this work.
A Kd of 0.499 nM, a koff of 0.00021 s⁻¹ and a kon of 420000 M⁻¹ s⁻¹ were found for B19 in this work.
A Kd of 0.639 nM, a koff of 0.000163 s⁻¹ and a kon of 255000 M⁻¹ s⁻¹ were found for B20 in this work.
